Experimental data: paper PMC10760138 (bioRxiv, 2024)

B1: S5V2–29 recombinant IgG (antibody, V domains shown)
VH: QVQLQESGPGLVKPSETLSLTCTVSGGSVSSNIYYWSWIRQTPGKGLEWLGYFYHSGSSNYNPSLKSRVTISGDMSKNQFSLKLKSVTAADTAIYYCARGGVENLMLVAVIQEMWYFDLWGRGTLVTVSG
VL: DIQMTQTPSSLSASVGDRVTITCRASQSIGASLNWYQQKPGEAPKFLIYAASNLQSGVPSRFSGSGSGTDFTLTISSLQPEDFATYYCQQQGTFGQGTKLEIK
B2: HC19 recombinant IgG (antibody, V domains shown)
VH: QVQLKESGPGLVAPSQSLSITCTVSGFLLISNGVHWVRQPPGKGLEWLGVIWAGGNTNYNSALMSRVSISKDNSKSQVFLKMKSLQTDDTAMYYCARDFYDYDVFYYAMDYWGQGTSVTVSS
VL: QAVVTQESALTTSPGETVTLTCRSSTGAVTTSNYANWVQEKPDHLFTGLIGGTNNRAPGVPARFSGSLIGDKAALTITGAQTEDEAIYFCALWYSNHWVFGGGTKLTVL
B3: S8V1–157 recombinant human IgG1 (antibody, V domains shown)
VH: EVQLVQSGAEVKKPGASVKVSCKVSGYRLTALSMHWVRQAPGKGLEWMGGFDPEEDETIYAQNFQGRVTLTEDTSTDTVYMELSSLRSEDTGVYYCATLMGANPFDYWGQGTLIIVSG
VL: not shown

Target: full-length, membrane-anchored A/Aichi/02/1968(H3N2)(X-31) HA (Influenza A virus …, UniProt P03437)
Experiment: flow cytometry on cells

Row | Binder | binding result
1 | B1 | binds
2 | B2 | binds
3 | B3 | binds
